In US11015206B2, “Compositions and methods comprising sequences having hydroxyphenylpyruvate dioxygenase (HPPD) activity” (PIONEER HI-BRED INTERNATIONAL, INC., priority 2014, dated 2021):

B1: P056028-G-01 (protein)
chain: MGPTPTATAAGAAVAAASAAEQAAFRLVGHRNFVRFNPRSDRFQTLAFHHVELWCADAASAAGRFSFALGVPLAARSDLSTGNSAHASLLLRSGSLSLLFTAPYAHGADAATAALPSFSAAAARRFAADHGLAVRAVALRVADAEDAFRASVAAGARPAFGPVDLGRGFRLAEVELYGDVVLRYVSYPDGAAGEPFLPGFEGVASPGAADLGLNRFDHIVGNVPELAPAAAYMAGFTGFHEFAEFTTEDVGTTESGLNSMALANNSENVLLPLNEPVHGTKRRSQIQTFLDHHGGPGVQHIALASDDVLRTLREMRARSAMGGFEFLPPPLSDYYDGVRKCAGDVLTEAQINECQELGVMVDRDDEGVLLQIFTKPVGDRPTFFLEIIQRIGCMEKDEKGQEYQKGGCGGFGKGNFGQLFKSIEDYEKSLEKKRAAAAATAQGS
modifications: Zea mays variant form created by artificial means.
B2: Z. mays wt: maize wild-type HPPD, SEQ ID NO:1 (glycine for proline at position 2) (protein)
chain: MGPTPTAAAAGAAVAAASAAEQAAFRLVGHRNFVRFNPRSDRFHTLAFHHVELWCADAASAAGRFSFGLGAPLAARSDLSTGNSAHASLLLRSGSLSFLFTAPYAHGADAATAALPSFSAAAARRFAADHGLAVRAVALRVADAEDAFRASVAAGARPAFGPVDLGRGFRLAEVELYGDVVLRYVSYPDGAAGEPFLPGFEGVASPGAADYGLSRFDHIVGNVPELAPAAAYFAGFTGFHEFAEFTTEDVGTAESGLNSMVLANNSENVLLPLNEPVHGTKRRSQIQTFLDHHGGPGVQHMALASDDVLRTLREMQARSAMGGFEFMAPPTSDYYDGVRRRAGDVLTEAQIKECQELGVLVDRDDQGVLLQIFTKPVGDRPTLFLEIIQRIGCMEKDEKGQEYQKGGCGGFGKGNFSQLFKSIEDYEKSLEAKQAAAAAAAQGS
modifications: Zea mays

Columns and labels:
Assay type in all cases: biochemical, Z. mays
[1] = tested on: 4-hydroxyphenylpyruvate dioxygenase (HPPD); assay: ON rate ratio: HPPD reaction rate with vs without inhibitor in the 70 to 90 second interval; details: for Insensitivity, isoxaflutole (DKN), Rate ratio ON: inhibitor diketonitrile form of isoxaflutole (DKN); for Insensitivity, mesotrione, Rate ratio ON: inhibitor mesotrione; for Insensitivity, sulcotrione, Rate ratio ON: inhibitor sulcotrione; for Insensitivity, tembotrione, Rate ratio ON: inhibitor tembotrione; for Insensitivity, topramezone, Rate ratio ON: inhibitor topramezone
Summary of the method: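 Time courses of HPPD reactions, 60 or 120 nM enzyme with 100 μM HPP substrate, run with and without 4 μM inhibitor (e.g. mesotrione, tembotrione). Value is the rate with inhibitor over rate without, taken over 70–90 s; higher ratio reflects slower kON.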

[2] = tested on: 4-hydroxyphenylpyruvate dioxygenase (HPPD); assay: OFF rate ratio: release of inhibitor from pre-formed enzyme-inhibitor complex; details: for Insensitivity, isoxaflutole (DKN), Rate ratio OFF: inhibitor diketonitrile form of isoxaflutole (DKN); for Insensitivity, mesotrione, Rate ratio OFF: inhibitor mesotrione; for Insensitivity, sulcotrione, Rate ratio OFF: inhibitor sulcotrione; for Insensitivity, tembotrione, Rate ratio OFF: inhibitor tembotrione; for Insensitivity, topramezone, Rate ratio OFF: inhibitor topramezone
Summary of the method: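 HPPD (7.2 μM) pre-incubated 1 h at RT with inhibitor (8 μM), then diluted into 25 mM Hepes pH 7, 2 mM ascorbate, 10 μM FeSO4, 100 μM HPP, 50 nM HGD; A320 followed 12 min. Ratio = steady-state rate with inhibitor over initial rate of inhibitor-free enzyme.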

[3] = tested on: 4-hydroxyphenylpyruvate dioxygenase (HPPD); assay: Insensitivity parameter (ON × OFF) and trait fitness (ON × OFF × kcat/KM or × kcat); design: key to ON × OFF / Insensitivity, mesotrione, ON × OFF / Insensitivity, tembotrione, ON × OFF / Insensitivity, topramezone, ON × OFF / Insensitivity, sulcotrione, ON × OFF / Insensitivity, isoxaflutole (DKN), ON × OFF: insensitivity = ON rate ratio × OFF rate ratio (surrogate for KD); details: for Insensitivity, isoxaflutole (DKN), ON × OFF / Insensitivity, isoxaflutole (DKN), Trait fitness: inhibitor diketonitrile form of isoxaflutole (DKN); for Insensitivity, mesotrione, ON × OFF / Insensitivity, mesotrione, Trait Fitness: inhibitor mesotrione; for Insensitivity, sulcotrione, ON × OFF / Insensitivity, sulcotrione, Trait fitness: inhibitor sulcotrione; for Insensitivity, tembotrione, ON × OFF / Insensitivity, tembotrione, Trait fitness: inhibitor tembotrione; for Insensitivity, topramezone, ON × OFF / Insensitivity, topramezone, Trait Fitness: inhibitor topramezone
Summary of the method: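 Calculated, not measured directly: ON rate ratio × OFF rate ratio gives an insensitivity parameter serving as a KD surrogate.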

[4] = tested on: 4-hydroxyphenylpyruvate dioxygenase (HPPD); assay: Estimate of kcat from initial rate at saturating hydroxyphenylpyruvate without inhibitor (ON rate ratio assay)
Summary of the method: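 Reactions used 60 or 120 nM HPPD and saturating 100 μM hydroxyphenylpyruvate without inhibitor. kcat was estimated from the initial rate at the known enzyme concentration.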

[5] = Table 7, tembotrione, combinatorial variants
[6] = Table 5, tembotrione, fold vs maize wild type HPPD

Row | Molecule | Insensitivity, isoxaflutole (DKN), Rate ratio ON [1] | Insensitivity, mesotrione, Rate ratio ON [1] | Insensitivity, sulcotrione, Rate ratio ON [1] | Insensitivity, tembotrione, Rate ratio ON [1] | Insensitivity, topramezone, Rate ratio ON [1] | Insensitivity, isoxaflutole (DKN), Rate ratio OFF [2] | Insensitivity, mesotrione, Rate ratio OFF [2] | Insensitivity, sulcotrione, Rate ratio OFF [2] | Insensitivity, tembotrione, Rate ratio OFF [2] | Insensitivity, topramezone, Rate ratio OFF [2] | Insensitivity, isoxaflutole (DKN), ON × OFF [3] | Insensitivity, isoxaflutole (DKN), Trait fitness [3] | Insensitivity, mesotrione, ON × OFF [3] | Insensitivity, mesotrione, Trait Fitness [3] | Insensitivity, sulcotrione, ON × OFF [3] | Insensitivity, sulcotrione, Trait fitness [3] | Insensitivity, tembotrione, ON × OFF [3] | Insensitivity, tembotrione, Trait fitness [3] | Insensitivity, topramezone, ON × OFF [3] | Insensitivity, topramezone, Trait Fitness [3] | further results
1 | B1 | 0.77 | 0.71 | 0.78 | 0.77 | 0.80 | 0.42 | 1.00 | 1.14 | 0.47 | 0.57 | 0.32 | 6.55 | 0.71 | 14.6 | 0.89 | 18.2 | 0.36 | 7.32 | 0.46 | 9.31 | ON rate ratio [1, 5]: 0.742; OFF rate ratio [2, 5]: 0.320; ON × OFF ([3]; Megatable 3, shuffled variants): 0.238; ON × OFF × kcat ([3]; Megatable 3, shuffled variants): 7.65; ON × OFF [3, 5]: 0.238; ON × OFF × kcat [3, 5]: 7.65; kcat ([4]; Megatable 3, shuffled variants): 0.537 s⁻¹; kcat ([4]; Table 7, combinatorial variants): 0.537 s⁻¹
2 | B2 | 0.08 | 0.20 | 0.30 | 0.20 | 0.100 | 0.01 | 0.31 | 0.28 | 0.04 | 0.045 | 0.0005 | 0.015 | 0.062 | 2.1 | 0.042 | 1.45 | 0.007 | 0.26 | 0.002 | 0.077 | ON ratio (parameters with tembotrione) ([1]; Table 5, tembotrione): 0.17; ON rate ratio ([1]; mesotrione): 0.20; ON rate ratio ([1]; mesotrione, listed as wild type): 0.2; OFF ratio (parameters with tembotrione) ([2]; Table 5, tembotrione): 0.03; OFF rate ratio ([2]; mesotrione): 0.31; time span to reach the steady state (dissociation from inhibitor) ([2]; mesotrione, enzyme 240 nM): 280 s; Insensitivity parameter, ON × OFF ([3]; DKN (diketonitrile form of isoxaflutole)): 0.0096; Insensitivity parameter, ON × OFF ([3]; Mesotrione, Table 6): 0.0437; Insensitivity parameter, ON × OFF ([3]; Sulcotrione): 0.0872; ON × OFF × kcat, Value ([3]; Table 5, tembotrione): 1.07; ON × OFF × kcat, Fold vs wt [3, 6]: 1.00; ON × OFF, fold vs wt [3, 6]: 1.00; ON × OFF (parameters with tembotrione) ([3]; Table 5, tembotrione, insensitivity parameter): 0.0051; Insensitivity parameter, ON × OFF ([3]; Tembotrione): 0.0051; Insensitivity parameter, ON × OFF ([3]; Topramezon): 0.0154; Fitness Fold vs Zm wt ([3]; mesotrione): 1; fold less sensitive to mesotrione than soybean HPPD ([3]; mesotrione): 40 fold; Insensitivity parameter, ON × OFF ([3]; mesotrione, Table 2): 0.06; kcat ([4]; Table 5, single substitutions in Round 7 variant 9070 (SEQ ID NO:2), estimate from initial rate at saturating hydroxyphenylpyruvate without inhibitor): 3.5 s⁻¹
